For this test, the target named is K5,83R-JMD (mouse). The test can be described thus: co-IP; RFP chimeras immunoprecipitated with rabbit polyclonal anti-RFP on Protein A beads (Figure 2C also with E2 antibody to the E-cadherin cytoplasmic domain) from MDCK extracts, 0.1% Triton X-100 in CSK buffer (50 mM NaCl, 300 mM sucrose, 10 mM Pipes pH 6.8, 3 mM MgCl2), 4°C; stable or transient expression; with or without 10 µM MG-132 for 4 h, 10 mM NEM in the extraction buffer, Src-GFP or Hakai-FLAG expression; blots for p120-catenin and tubulin.

As to p120-catenin (natural protein), the fold amount co-immunoprecipitated, against WT-JMD was 10 fold and the fold increase of the amount co-immunoprecipitated upon proteasome inhibition came out at 0.4 fold.

These data come from article PMC3365061.
